Target: T1, DENV2 D2S10 envelope (E) protein on virions (dengue virus 2 (DENV2), strain D2S10)
T1 construct: also called DENV2 virions
Experiment: ELISA
Details: one partner purified

B1: chimeric human-mouse MAb E60 (human IgG1), non-modified (antibody, V domains shown)
VH: EVQVQQSGPELVTPGASVKISCKTSGYTFTEYTVHWVKQSHGKSLEWIGGINPTSGGTNYNQRFRGKATLTVDRSSSTAYMELRSLTSEDSAVYFCAGTLYGYPFDFWGQGTTLTVSS
VL: DILMTQSPSSMSVSLGDSVSITCHASQGISGNIGWLQQKPGKSFKGLIYHGTNLEEGVPSRFSGSGSGADYSLTISSLESEDFADYYCVQYGQFPPTFGGGTKLEIK
notes: also called intact E60; E60 parent; source: HEK-293T, transfected, purified from supernatant (protein A)
  Kd: 1.14 nM

B2: chimeric human-mouse MAb E60 N297Q (human IgG1, aglycosylated) (antibody, V domains shown)
VH: B1 VH
VL: B1 VL
notes: also called modified E60; source: HEK-293T, transfected, purified from supernatant (protein A)
  Kd: 1.18 nM

B3: chimeric human-mouse MAb E76 (human IgG1), non-modified (antibody, V domains shown)
VH: QVTLKESGPGILQSSQTLSLTCSFSGFSLSTSSMGVSWIRQPSGKGLEWLAHIYWDDDKRYSPSLKSRLTISKDTSRNQVFLKITSVENVDSATYYCARKDGYVPYSLDYWGQGISVTVSS
VL: DIVMTQSHKFMSTSVGDRVSISCKASQAVGTAVAWYQQKPGQSPKLLIYWASTRHTGVPDRFTGSGSGTDFTLTINNVQSEDLADYFCHQYTSYPLTFGTGTKLELK
notes: source: HEK-293T, transfected, purified from supernatant (protein A)
  Kd: 0.84 nM

B4: chimeric human-mouse MAb E76 N297Q (human IgG1, aglycosylated) (antibody, V domains shown)
VH: B3 VH
VL: B3 VL
notes: as for B3
  Kd: 1.1 nM

B5: chimeric human-mouse MAb E87 (human IgG1), non-modified (antibody, V domains shown)
VH: QVQLQQPGADLVRPGTSVKLSCKASGYTFTIYWMHWVKQRPGQGLEWIGVIDPSAGYTNYSQNFKDKATLTVDTSSSTAYMQLNSLTSEDSAVYYCARHGHYFGTSYWYFDVWGTGTTVTVSS
VL: DIVMSQSPSSLAVSVGEKVTMRCKSSQSLLYSRNQKNYLAWYQQKPGQSPKVLIYWASTRESGVPDRFTGSGSGTDFTLTISSVKTEDLSVYYCQQYYSYPFTFGSGTKLEIK
notes: as for B3
  Kd: 1.07 nM

B6: chimeric human-mouse MAb E87 N297Q (human IgG1, aglycosylated) (antibody, V domains shown)
VH: B5 VH
VL: B5 VL
notes: as for B3
  Kd: 1.43 nM

B7: chimeric human-mouse MAb E28 (human IgG1), non-modified (antibody, V domains shown)
VH: QIQLVQSGPELKKPGETVKISCKASGYTFTDYSMHWVKQTPGKGLKWLGWINPKTGEPTYVDDFKGRFAFYLETSSSTAYLQITNLKNEDTATYFCARGYDYYSVDYWGQGTLVTVSS
VL: DIQMTQTTSSLSASLGARVTISCRANQDINNYLHWYQQKPDGTIKLLVYYTSGLHSGVPSRFIGSGSGTDYSLTITNLEQEDIATYFCQQGNTLPLTFGAGTKLELK
notes: as for B3
  Kd: 2.7 nM

B8: chimeric human-mouse MAb E28 N297Q (human IgG1, aglycosylated) (antibody, V domains shown)
VH: B7 VH
VL: B7 VL
notes: as for B3
  Kd: 2.88 nM

B9: chimeric human-mouse MAb E44 (human IgG1), non-modified (antibody, V domains shown)
VH: QVQLKESGPGLVAPSQSLSITCTVSGFSLTSYGVDWVRQSPGKGLEWLGVIWGAGSTNYNSAFRSRLSISKDNSKSQVFLKMNSLQTDDTAMYYCASGTGTGAMDYWGQGTSVTVSS
VL: DIVLTQSPATLSVTPGDSVSLSCRASQSISNNLHWYQQKSHESPRLLIFYSSQSISGIPSRFSGSGSGTDFTLRINSVETEDFGMYFCQQSNNWPHTFGRGTKLDMK
notes: as for B3
  Kd: 0.14 nM

B10: chimeric human-mouse MAb E44 N297Q (human IgG1, aglycosylated) (antibody, V domains shown)
VH: B9 VH
VL: B9 VL
notes: as for B3
  Kd: 0.84 nM

B11: chimeric human-mouse MAb E18 (human IgG1), non-modified (antibody, V domains shown)
VH: QIQLVQSGPELKKPGETVKISCKASGYTFTDYSMHWVKQAPGKGLKWMGWFNTETGEPTYADDFKGRFAFSLETSASTAFLQINNLKNEDTATYFCARGGDFYSVDYWGQGTSVTVSS
VL: DIQMTQTTSSLSASLGDRVTISCRASQDITNYLNWYQQKPDGTVKLLIYYTSGLHSGVPSRFSGSGSGTDYSLTISNLEQEDIATYFCQQGNTLPPTFGGGTKLEIK
notes: as for B3
  Kd: 2.74 nM

B12: chimeric human-mouse MAb E18 N297Q (human IgG1, aglycosylated) (antibody, V domains shown)
VH: B11 VH
VL: B11 VL
notes: as for B3
  Kd: 3.46 nM

B13: human MAb 87.1 LALA (IgG1) (antibody, V domains shown)
VH: EVQLVESGGGLVQPGRSLRLSCAASGFTFDDYAMFWVRQAPGKGLEWISGISWNSATIGYADSVKGRFTISRDNAKKSLDLQMNSLRPDDTALYYCAKGGPRGLQLLSSWVDYWGQGTLVTVSS
VL: DIQMTQSPSSLSASVGDRVTITCRASQDIRRYLNWYQQRPGRVPQLLIYTTSTLQSGVPSRFSGSGSVTDFTLTISSLQPEDFGTYYCQQSYSPPHTFGQGTKLEIK
notes: source: HEK-293T, purified (protein A, size-exclusion chromatography)
  Kd: 0.34 nM

B14: human MAb 82.11 LALA (IgG1) (antibody, V domains shown)
VH: QAHLVESGGGVVQPGRSLRLSCAASAFNFSTNAMHWVRQAPGKGLEWVAVISYDGSHKYYADSVKGRFTISRDNSKNTLYLQMNSLRAADTAVYYCATVGVLTWPVNAEYFHHWGQGSLVSVSS
VL: QSVLTQPPSVSGAPGQRVTISCTGSSSNIGAGYDVHWYQQLPGTAPKLLICGNNNRPSGVPDRFSGSKSGTSASLAITGLQAEDEADYYCQSYDSSLTGVVFGGGTKLTVL
notes: as for B13
  Kd: 0.91 nM
